For 12 sequences, protein production results are on record in a protein production outcome set (Wang et al. 2014).

This data set in a line: label from the status in PepcDB records.
Take “MIEMAYDDDENSMAIKVWRLYVDLWKLWYKKNERNLNKIDLSITEFTIMRHLIENGPMSMAAIASLINVTPGWITGVVDKMEEKNLVTRNRDSTDRRIIKIAITDRGREVYENAKKNHYAFIRKALAELNENELQQTYVLLQKMMDDVSKLESN”: the protein production result was “failed”.
Take “MIDNENNVNEPAEEESFAELFEKSNRRTERLRPGSKVDARVLKIGAEWVFLDIGSKGEGVMERKELLDKDGNLTVAEGDTIPVWFVKVERNEMRFTTKVGTGQAGLSALEDAYRAGIPVEGNVEKEIKGGFEIKVGGTVRAFCPYSQISLRRAANPAEFVGRQLLFKVVEFAERGRNIVLSHRAILEEEERQKREALKDTLKEGTTLTGTVTRLMPFGAFVDIGGVEGLIPISEAGWSRVKEIGDVLSVGEQVTALVKRIDWENNKISLSLRDVQADPWEGIAERFPEGSYHTGTVARLAPFGAFVTLAPGIDGLIHISKLGAGKRIAHPREVLKEGDAVEVTVEGVDRESRRLSLALAATKRAAEEEERSIAEFRGKGAAQTKDSMGTFGDILKAQLDDKK”: the protein production entry is “failed”.
Take “MTDREWPEYPNQSGGETVTGPESAQEEAASERGWEADPPSPASEECQSEEGSNWERTAQEAEEEVPGGQRGEDLGTLGQAQELQEAAPFFQEEGSEPSQTTETSGWKPGMESSEDSREEPDLPAESPESSGQELQEAAALSPEETQVPFQTENAWEPGAERPENPDGGESQEPVAERPSAQPYDQSPAFSRPAPQAPPPVWNPGWQASYRQAPQNYPYGQGQYQGGWHPQQRQVPPPYYGGTPYQAPNPYQNQAPYGYPGQAARNQGQPGYQESRWYPQQPAQPARTGSVPPPSQPPQKEAGELPDAKPPEKKRMNKKTKAFLWVIGAVLVLLGAAMVLYSVGLTSGWFGGETAEPPQASSSTPAPEDDQKLLEIEEIPQDGMMTPNQVYEKVKHSVVAVVTYGQGSDLTDSPISSGSGIVFSEDGYIVTNSHVIGDSNQYPVKMVFTGQDENEEDQEYPAQIVGYDKRTDIAVLKIDAAGLTPAEFADSDQLKVGDTVLSLGNPGVAGENFTNTLTKGMVSAVNRTVTMSSINMQYIQTDAAINPGSSGGALLNLYGQVVGINAAKITTTEIEGICFAIPTNIAKDVINDIVKNGYVSDRVRLGVTIRGLSSYEAEMYNVPQGLVIVGFSSDSEIPSKGAEIGDIITAINGVNTTSSNTLYNELEKFKAGEKVKLTIYRQASGSQRARTFEIEVTLLEARGETQSAVTPTPEAP”: the protein production result is “failed”.
As to “MSGEPDGERVIAGRYRLLSPLGEGGMGTVWRARDEVLRREVAVKEVRAPAGLSQPDVGRMYARLEREAWAAARISHPNVVTVYDVATDGGRPWIVMELVRGLSLADLLDAEGPLEPRRAALIGAEVLAALRAAHAAGVLHRDVKPANVLLANDGRVVLTDFGIARVEGSEALTMTGEVVGSPEFLAPERALGRTPGAASDLWSLGVLLYATVEGVSPFRQGTPLSTLRAIVDEAVPPPRRAGALGPVVEGLLRKDPAERLPAEEAERALRLVGAGGAPPGRGPRTGAPPSGAFAPTVVAAHPGPPTAPTPPMPVPAAGDTSAAGAPGAPGGRDRRARAVLLVGLAVLVLALAGLTYSLLDRSDGGGGTEGSGGSPGPGATSAATSGGAGEPSPPASSGTDGGQSGPAAQSVEVTVVGSRTHYSGACPPPHDRAPAFTATFTVGRLPAEVGYRWVTADGSVSDPGWRTLSFPSGGERSRQDGVVVTTHDDTGAFESAVRVEVRSPVRATSDAVAFSVTCGTGTETETGTGTPSGGASHSSSPSAPSSSPSA”, the protein production entry is listed as “failed”.
Consider “MHNKKWDLRIICAHAFTILIWGTAFPAIRMGLESYTPEHLTLLRLLIASFILLLFSFIYKLRLPDLKDIPAIFIFGALGFTIYHIALNYGEKTVNAGSASLIISVTPIVTAILASVFLNEKMKLNGWLGGVISFAGIALISFSQGDAIQLNSGGLFILLAAISESLFFVFQTSYLKKYGFLPFTIYTILSSTVCMLIFLPGVYQEILAAPLEVNLSVIYLGVFPTVLPYIALAYIISRAGASEATSSLYLTPITACFIAWIWLGEVPTLVSIIGGGITILGIVIAHIPVLRKEKHRNLANNQSV”, for which the protein production entry was “failed”.
On to “MKQFVVISGKGGTGKTSVTAGLAAVGKDMVLADCDVDAADLHLVLAPEIRERHDFISGVVASIEPEACISCGLCTTHCRYGAIPQGYAPQVAPEHCEGCGVCAHVCPTGAARLSDRRCGEWYVSDTRFGPMVHAALGIGEENSGKLVSTVRTRARELAEARDASVVLIDGSPGVGCPVIASLAGADAALAVTEPTVSALHDLERVHALARHFDVRMAVLLNKADIHPGMAERIIGYCTTHDLPLVGRFGFSPLFVQAQLEGRTLPEQDSGEWRQRFNGVWNQLLALVLEHHHHHH”, for which the protein production entry was “failed”.
Turning to “RQKFINDVLHLLYRPLDWNQSIAKVMELLGRFTQADRSYIFENSPDDSYATNTFEWCQEGIAPQIHLLQHFEYSLMPSWKPLIVEKKMICASDISTLPLDLSETLAPQGIKSILAVSIFAQGRLYGYLGLDSCRKKREWSEEEIELLRSISTIIAGAIERRGWERSEKEQ”, the protein production result is “failed”.
Turning to “MDELKLYTYIAVFSTFALYFAIAWWARAGSTSDFYVAGGGITPMQNGMAIGADWMSAASFISMAGLIAFLGYGGSVFLMGWTGGYVLLAMLLAPYMRKHGKFTVPEFIFDRYYSKTARIVAVACLIIASLTYIIGQMKGVGVAFSRFLEVDYGLGLGIGMFVVWVYAVLGGMKGITYTQIAQYVVMIFAYTIPAIFISLQLTGNPIPQLGLGSTLADGSGVYLLDKLDMVVTDLGFKEYTTSNLGGTLNMFAYTISLMIGTAGLPHVIMRFFTVPSVQAARQSAGYALVFIGLLYTVAPAVGAMARLNLMNTIEPTAGQNLVYDERPQWFKDWEKTGLLKFEDKNGDGKIQYTSNATDQTVTKINTMTGKEIVVVPNEMVKVDRDIMVLANPAIANLPNWVIALVAAGGLAAALSTAAGLLLAISSSISHDLMKGVLTPDLSEKNELLAGRVVMTIAILVSGYLGLHPPGFAAGTVALAFGLAASSIFPALMMGIFSKKMSGTAAISGMVAGIGVTMMYVFQHKGIMFIPGTSFLGDMGKDWFFGISPNAFGAVGAIVNFGVAFIVLQFTGPCPANIVAMVENMRAPGDCAAAHDH”, the protein production result is “failed”.
For “MSEPFTPGDLKTILHSKRANLYYLEHCRVLVNGGRVEYVTDAGKQSLYWNIPIANTTTLLLGTGTSVTQAAMRELAKAGVMVGFCGGGGTPLFSAGEVEMEVAWQSPQSEYRPTEYLQWWARFWFDDDKRLQAAKQLQQARLARIRAQWLDNRQLREAGFEIEPSRLTQLLDASLASLERAPDHTALLTEEARLSKQLFRLAAQATAYGEFTRAKRGGGVDPANRFLDHGNYLAYGLGATAAWVLGLPHSLAILHGKTRRGGLVFDAADLVKDAAILPQAFVSAMKGDDEQTFRQQCIEQLARGEALDFMIDQLQRIAEQLGRDG”, the protein production entry is given as “failed”.
Then “MTERPSLSPREARDRYLAHRQTDAADASIKSFRYRLKHFVEWAEERDITAMRELTGWKLDEYETFRRGSDVSPATLNGEMQTLKNWLEYLARIDVVDEDLPEKVHVPTIPDGEESNDEMLEPEAAKKLLRAMRSDPTHYGTVKHALLELLWFTGCRVGAARSLDLRDYHSGERFVTFHHREGTPLKNDSDGERAVGLPEAVCEVLDYYIEHHRESSHDDHGRKPLFTTTQGRASENTARVWTYLATQPCLHGPCPHGKERETCSYLHIHSASKCPSSLSPHRIRTGSITWQRDCGLPAEVVSERVNATLEVIEKHYDQATKRQRLEERRRPYINNLELDLEADS”, with “failed”; and “MTEPPPTPDRHPDAVESAAPGGYLEPVRAAGTVLWRDTGRGREIALVHRPRYNDWTLPKGKLDEGEHVLVAAVRETVEETGVTPRLGRRLATQRYWKSGWPKQVDWWAATPAPGTTAQFTPTAEVDAVEWLPAAEARARLTYPSDVRVLDDFLHGPAQTVPLVLLRHASAGNKNEWHDYDLLRPLDEAGRAHARAVADILAVFGPLRVVSSTAARCLETVVPYAAAHGVEIRTEHTFTVGVLRSGAQAYDPQAARQTMRALVEERQPTLVCTHGELVADLMAEAAAQTGAPARSRWALRKGAFWVVHRDAKDGSLVAVEHHGLPG”, with “failed”; and “MSLEWQDLAQLPVSIFKDYVTDAQDAEKPFIWTEVFLREINRSNQEIILHIWPMTKTVILGMLDRELPHLELAKKEIISRGYEPVVRNFGGLAVVADEGILNFSLVIPDVFERKLSISDGYLIMVDFIRSIFSDFYQPIEHFEVETSYCPGKFDLSINGKKFAGLAQRRIKNGIAVSIYLSVCGDQKGRSQMISDFYKIGLGDTGSPIAYPNVDPEIMANLSDLLDCPMTVEDVIDRMLISLKQVGFNDRLLMIRPDLVAEFDRFQAKSMANKGMVSRDEEGHHHHHH”, with “not failed”.
